Experimental data published in article PMC10899662, “TopBP1 utilises a bipartite GINS binding mode to support genome replication” (Nature Communications, 2024).

System: GINS
Experiment: Pulldown of recombinant TopBP1-BRCT0-5 by immobilised GINS, 150 mM NaCl
Type: binding
Conditions: for GINS binding? (rec. proteins): summary of recombinant protein interaction tests (yes/no); for GINS interaction: 100 nM TopBP1, 20 mM HEPES pH 8.0, 150 mM NaCl, 0.01% Tween-20, 45 min, 4 °C
Text: Fig. 1 GINS and TopBP1 interact. a (i) Domain model of human (hs) TopBP1, its conservation with BRCT1/2 and 3/4 domains (grey boxes) of budding yeast Dpb11 (scDpb11). Arrows point to binding domains for interacting proteins. (ii) Overview of TopBP1 wild type (WT) and BRCT deletion (Δ) and point mutants. GINS binding capabilities are labelled in red and green. Numbers, amino acid position; capital letters indicate amino acid substitutions. Amino acid substitutions of point mutants in BRCT4 (B4mut) and 5 (B5mut) are coloured orange. b Elution profiles of size exclusion chromatography (Superdex200) of individual recombinant TopBP1-BRCT0-5 protein (grey) and GINS tetramers (green), or of both upon incubation (blue). c Recombinant GINS immobilised on Flag-beads and control beads (Flag peptide-coupled beads) were used to pull down recombinant TopBP1-0-5-WT or TopBP1-ΔBRCT4/5 (compare a(ii)). SDS gels were silver stained. kDa specifies molecular weight marker bands. The experiment was done more than three times with similar results. Source data are provided as a Source data file. TEXT PRINTED IN THE PICTURE: (a) BRCT0-5-WT: GINS binding? (rec. proteins): yes | (a) ΔBRCT4/5: GINS binding? (rec. proteins): no | (a) ΔBRCT3: GINS binding? (rec. proteins): yes | (a) ΔBRCT0/1/2: GINS binding? (rec. proteins): yes | (a) B5mut: GINS binding? (rec. proteins): yes | (a) B4mut: GINS binding? (rec. proteins): no
Fig. 2 Protein structure of the GINS-TopBP1-BRCT4/5 complex. a Structural model of the GINS-TopBP1-BRCT4/5 complex. Crystal structures of the GINS subunits (PDB:2E9X) (shades of green, yellow), and the central BRCT4/5 domain of TopBP1 (PDB:3UEN) (grey) were docked into the cryo-EM volume shown as transparent volume. b Zoom-in of the BRCT4-Psf1 interface. The residues in stick representation appear crucial for the interface. Mutations to break the interaction are coloured pink (Psf1-I97R) and purple (TopBP1-B4mut; compare Fig. 1a(ii)). c Pulldown of the indicated recombinant TopBP1-BRCT0-5-strep versions (see Fig. 1a(ii)) by Flag-beads-immobilised recombinant GINS or Flag peptide-coupled control beads. Analysis was done by immunoblotting. The experiment was done more than three times with similar results. d Pulldown of the indicated recombinant TopBP1-BRCT0-5-WT-strep using immobilised GINS-WT or GINS carrying a Ile97 to arginine mutation in Psf1.TopBP1-Gcc/B4mut-strep (Figs. 1a(ii) and 3a) was used as a non-GINS binding control. The experiment was done twice with similar results. Source data are provided as a Source data file.
Fig. 3 The conserved core of the TopBP1-GINI domain is required for a stable interaction with GINS. a Domain model and T-COFFEE alignment (one-letter aa code) of TopBP1 proteins from humans (Q92547) Xenopus laevis (Q7ZZY3), Bos taurus (A0A3Q1LWE4) and Rattus norvegicus (A0A8I6GFZ6). Coloured boxes indicate GINI region mutants in sub-regions I (blue), II (green) and III (orange), and in the GINI core helix (red) (details in Supplementary Fig. 7). Amino acid substitutions, names of GINI core region mutations and corresponding GINS binding capabilities are shown. ., : and * indicate low conservation, high conservation and identical amino acids, respectively. b/c Pulldown of recombinant TopBP1-BRCT0-5-strep-WT or the indicated GINI region mutants (a) by bead-immobilised GINS or Flag peptide-coupled control beads. Analysis was done by immunoblotting. The experiments were done more than three times with similar results. Source data are provided as a Source data file. d Fluorescence polarisation measurements including dissociation constants (kD) calculations using recombinant GINS tetramer and fluorescently labelled TopBP1-GINI-core peptides (WT or Gpp (a)). For each peptide n = 3 independent experiments and data are presented as mean values +/−SEM. TEXT PRINTED IN THE PICTURE: (a) TopBP1-Gcc: GINS binding? (rec. proteins): no | (a) TopBP1-Gcore: GINS binding? […]

Molecule | GINS binding? (rec. proteins) | GINS interaction
TopBP1-BRCT0-5-WT: recombinant TopBP1 amino acids 1–766, strep-tagged (protein, left off: Strep, C-terminal, kept, recombinant TopBP1 amino acids 1–766, strep-tagged) MSRNDKEPFFVKFLKSSDNSKCFFKALESIKEFQSEEYLQIITEEEALKIKENDRSLYICDPFSGVVFDHLKKLGCRIVGPQVVIFCMHHQRCVPRAEHPVYNMVMSDVTISCTSLEKEKREEVHKYVQMMGGRVYRDLNVSVTHLIAGEVGSKKYLVAANLKKPILLPSWIKTLWEKSQEKKITRYTDINMEDFKCPIFLGCIICVTGLCGLDRKEVQQLTVKHGGQYMGQLKMNECTHLIVQEPKGQKYECAKRWNVHCVTTQWFFDSIEKGFCQDESIYKTEPRPEAKTMPNSSTPTSQINTIDSRTLSDVSNISNINASCVSESICNSLNSKLEPTLENLENLDVSAFQAPEDLLDGCRIYLCGFSGRKLDKLRRLINSGGGVRFNQLNEDVTHVIVGDYDDELKQFWNKSAHRPHVVGAKWLLECFSKGYMLSEEPYIHANYQPVEIPVSHKPESKAALLKKKNSSFSKKDFAPSEKHEQADEDLLSQYENGSSTVVEAKTSEARPFNDSTHAEPLNDSTHISLQEENQSSVSHCVPDVSTITEEGLFSQKSFLVLGFSNENESNIANIIKENAGKIMSLLSRTVADYAVVPLLGCEVEATVGEVVTNTWLVTCIDYQTLFDPKSNPLFTPVPVMTGMTPLEDCVISFSQCAGAEKESLTFLANLLGASVQEYFVRKSNAKKGMFASTHLILKERGGSKYEAAKKWNLPAVTIAWLLETARTGKRADESHFLIENSTKEERSLETEITNGINLNSDTAEHP | yes | –
TopBP1-Gpp: TopBP1-BRCT0-5, central leucine-leucine motif mutated to two consecutive prolines (protein, left off: Strep, C-terminal, kept, TopBP1-BRCT0-5, central leucine-leucine motif mutated to two consecutive prolines) MSRNDKEPFFVKFLKSSDNSKCFFKALESIKEFQSEEYLQIITEEEALKIKENDRSLYICDPFSGVVFDHLKKLGCRIVGPQVVIFCMHHQRCVPRAEHPVYNMVMSDVTISCTSLEKEKREEVHKYVQMMGGRVYRDLNVSVTHLIAGEVGSKKYLVAANLKKPILLPSWIKTLWEKSQEKKITRYTDINMEDFKCPIFLGCIICVTGLCGLDRKEVQQLTVKHGGQYMGQLKMNECTHLIVQEPKGQKYECAKRWNVHCVTTQWFFDSIEKGFCQDESIYKTEPRPEAKTMPNSSTPTSQINTIDSRTLSDVSNISNINASCVSESICNSLNSKLEPTLENLENLDVSAFQAPEDLLDGCRIYLCGFSGRKLDKLRRLINSGGGVRFNQLNEDVTHVIVGDYDDELKQFWNKSAHRPHVVGAKWLLECFSKGYMLSEEPYIHANYQPVEIPVSHKPESKAALLKKKNSSFSKKDFAPSEKHEQADEDPPSQYENGSSTVVEAKTSEARPFNDSTHAEPLNDSTHISLQEENQSSVSHCVPDVSTITEEGLFSQKSFLVLGFSNENESNIANIIKENAGKIMSLLSRTVADYAVVPLLGCEVEATVGEVVTNTWLVTCIDYQTLFDPKSNPLFTPVPVMTGMTPLEDCVISFSQCAGAEKESLTFLANLLGASVQEYFVRKSNAKKGMFASTHLILKERGGSKYEAAKKWNLPAVTIAWLLETARTGKRADESHFLIENSTKEERSLETEITNGINLNSDTAEHP | no | strongly compromised
TopBP1-B4mut: Val590, Thr606 and Val610 mutated to glutamate, arginine and glutamate (protein, left off: Strep, C-terminal, kept) MSRNDKEPFFVKFLKSSDNSKCFFKALESIKEFQSEEYLQIITEEEALKIKENDRSLYICDPFSGVVFDHLKKLGCRIVGPQVVIFCMHHQRCVPRAEHPVYNMVMSDVTISCTSLEKEKREEVHKYVQMMGGRVYRDLNVSVTHLIAGEVGSKKYLVAANLKKPILLPSWIKTLWEKSQEKKITRYTDINMEDFKCPIFLGCIICVTGLCGLDRKEVQQLTVKHGGQYMGQLKMNECTHLIVQEPKGQKYECAKRWNVHCVTTQWFFDSIEKGFCQDESIYKTEPRPEAKTMPNSSTPTSQINTIDSRTLSDVSNISNINASCVSESICNSLNSKLEPTLENLENLDVSAFQAPEDLLDGCRIYLCGFSGRKLDKLRRLINSGGGVRFNQLNEDVTHVIVGDYDDELKQFWNKSAHRPHVVGAKWLLECFSKGYMLSEEPYIHANYQPVEIPVSHKPESKAALLKKKNSSFSKKDFAPSEKHEQADEDLLSQYENGSSTVVEAKTSEARPFNDSTHAEPLNDSTHISLQEENQSSVSHCVPDVSTITEEGLFSQKSFLVLGFSNENESNIANIIKENAGKIMSLLSRTEADYAVVPLLGCEVEARVGEEVTNTWLVTCIDYQTLFDPKSNPLFTPVPVMTGMTPLEDCVISFSQCAGAEKESLTFLANLLGASVQEYFVRKSNAKKGMFASTHLILKERGGSKYEAAKKWNLPAVTIAWLLETARTGKRADESHFLIENSTKEERSLETEITNGINLNSDTAEHP | no | strongly compromised in its ability to bind GINS
